In patent US20020155500A1 (CURIS, published 2002):
Values belong to the binder of their own block, whether it stands above or below them.

Legend:
[1] = biological target: T1, ALK-2 (transfected cDNA, on cells) (Homo sapiens (Human), UniProt Q04771 21-509); experiment: affinity cross-linking of ^125I-BMP4 to COS-1 cells transfected with ALK2 and daf-4 cDNA; immunoprecipitation with ALK antiserum, autoradiography
T1 construct: Expressed from cDNA in COS-1 cells or in Mv1Lu R mutant cells
T1 sequence: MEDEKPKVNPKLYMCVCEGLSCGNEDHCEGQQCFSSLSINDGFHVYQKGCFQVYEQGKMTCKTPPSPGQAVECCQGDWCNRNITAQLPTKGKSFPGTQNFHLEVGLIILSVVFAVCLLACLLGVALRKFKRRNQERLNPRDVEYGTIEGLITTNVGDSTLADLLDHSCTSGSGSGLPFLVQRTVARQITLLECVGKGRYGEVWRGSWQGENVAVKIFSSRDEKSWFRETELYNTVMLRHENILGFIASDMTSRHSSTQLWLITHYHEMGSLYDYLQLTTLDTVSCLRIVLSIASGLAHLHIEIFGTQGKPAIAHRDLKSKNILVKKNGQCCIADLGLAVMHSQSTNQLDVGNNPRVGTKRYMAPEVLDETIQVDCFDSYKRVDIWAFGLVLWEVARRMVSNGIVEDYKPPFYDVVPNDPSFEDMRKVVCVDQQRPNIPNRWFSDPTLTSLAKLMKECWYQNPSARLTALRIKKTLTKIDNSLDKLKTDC
Description: (§1) Briefly, cells in multi-well plates were washed with binding buffer (e.g., phosphate buffered saline containing 0.9 mM CaCl₂, 0.49 mM MgCl₂ and 1 mg/ml bovine serum albumin (BSA)), incubated on ice in the same buffer with labelled ligand, in the presence and absence of excess unlabelled ligand for sufficient time for the reaction to equilibrate (e.g., 3 hours.) Cells were washed and the crosslinking was done in the binding buffer without BSA together with 0.28 mM disuccinimidyl suberate for 15 min on ice. […] Cells were centrifuged again and supernatants subjected to analysis by standard SDS-gel electrophoresis using 4%-15% polyacrylamide gels, followed by autoradiography.
(§2) The gels were fixed and dried, and then subjected to autoradiography or analysis using phosphorimager (Molecular Dynamics).
(§3) In the Table, “N/T” means “not tested”. […] The values represented by “+/−”, “+”, “++”, “+++”, and “−”, are all qualitative descriptors of the relative amount of radioactivity measured when the crosslinked molecules were gel electrophoresed and subjected to autoradiography.

[2] = biological target: T2, ALK-4 (transfected cDNA, on cells) (UniProt P36896 24-505, limits assumed); experiment: affinity cross-linking of ^125I-BMP4 to COS-1 cells transfected with ALK4 and daf-4 cDNA; immunoprecipitation with ALK antiserum, autoradiography
T2 construct: whole, on cells
T2 sequence (looked up): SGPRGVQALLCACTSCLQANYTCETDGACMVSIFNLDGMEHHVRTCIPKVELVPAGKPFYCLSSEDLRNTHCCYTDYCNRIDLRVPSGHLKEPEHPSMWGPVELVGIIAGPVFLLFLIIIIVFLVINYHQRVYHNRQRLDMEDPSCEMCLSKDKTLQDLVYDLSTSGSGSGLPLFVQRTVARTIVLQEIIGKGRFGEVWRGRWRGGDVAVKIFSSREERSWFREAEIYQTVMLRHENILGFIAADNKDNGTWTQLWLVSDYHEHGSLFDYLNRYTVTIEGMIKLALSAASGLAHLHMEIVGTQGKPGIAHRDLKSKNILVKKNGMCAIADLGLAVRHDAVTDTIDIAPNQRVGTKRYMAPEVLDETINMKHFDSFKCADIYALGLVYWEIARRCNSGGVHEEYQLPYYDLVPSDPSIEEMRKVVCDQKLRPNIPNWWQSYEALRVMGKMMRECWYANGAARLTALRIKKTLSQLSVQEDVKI
Description: as §1, §2, §3

[3] = biological target: T3, ALK-5 (transfected cDNA, on cells) (UniProt P36897 34-503, limits assumed); experiment: affinity cross-linking of ^125I-BMP4 to COS-1 cells transfected with ALK5 and daf-4 cDNA; immunoprecipitation with ALK antiserum, autoradiography
T3 construct: whole, on cells
T3 sequence (looked up): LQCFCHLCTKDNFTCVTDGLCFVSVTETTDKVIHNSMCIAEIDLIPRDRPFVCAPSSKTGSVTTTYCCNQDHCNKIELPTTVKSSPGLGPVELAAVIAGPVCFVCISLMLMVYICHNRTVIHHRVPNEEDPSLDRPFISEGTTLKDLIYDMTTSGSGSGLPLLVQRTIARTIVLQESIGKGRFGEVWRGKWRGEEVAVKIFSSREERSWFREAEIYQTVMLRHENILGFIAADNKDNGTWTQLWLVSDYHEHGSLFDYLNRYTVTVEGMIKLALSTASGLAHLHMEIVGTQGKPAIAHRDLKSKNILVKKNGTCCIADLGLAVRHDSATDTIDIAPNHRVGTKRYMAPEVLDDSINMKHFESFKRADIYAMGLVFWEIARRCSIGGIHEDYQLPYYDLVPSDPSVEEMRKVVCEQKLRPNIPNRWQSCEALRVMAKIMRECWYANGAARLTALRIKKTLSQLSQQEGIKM
Description: as §1, §2, §3

[4] = biological target: ALK-1 (transfected cDNA, on cells) (Homo sapiens (Human), UniProt P37023 22-503); experiment: affinity cross-linking of ^125I-BMP4 to COS-1 cells transfected with ALK1 and daf-4 cDNA; immunoprecipitation with ALK antiserum, autoradiography
Chain of ALK-1 (transfected cDNA, on cells) (P37023 22-503 S172T limits assumed): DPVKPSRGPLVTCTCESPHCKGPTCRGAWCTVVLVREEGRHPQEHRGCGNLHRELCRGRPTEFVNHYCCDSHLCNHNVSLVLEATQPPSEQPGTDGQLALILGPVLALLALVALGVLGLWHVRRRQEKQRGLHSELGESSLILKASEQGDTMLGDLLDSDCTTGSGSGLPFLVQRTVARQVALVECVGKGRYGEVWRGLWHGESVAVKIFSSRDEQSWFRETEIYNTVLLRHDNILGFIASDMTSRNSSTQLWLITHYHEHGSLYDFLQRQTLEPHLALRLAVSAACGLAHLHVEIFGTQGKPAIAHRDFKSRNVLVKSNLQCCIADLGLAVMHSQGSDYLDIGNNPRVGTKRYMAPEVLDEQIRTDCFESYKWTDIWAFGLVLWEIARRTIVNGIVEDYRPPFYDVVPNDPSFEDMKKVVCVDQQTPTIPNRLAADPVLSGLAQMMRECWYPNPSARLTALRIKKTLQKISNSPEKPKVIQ
Description: as §1, §2, §3

[5] = biological target: T3, ALK-5 (transfected cDNA, on cells); experiment: affinity cross-linking of ^125I-OP1 to COS-1 cells transfected with ALK5 and daf-4 cDNA; immunoprecipitation with ALK antiserum, autoradiography
Description: as §1, §2, §3

[6] = biological target: T2, ALK-4 (transfected cDNA, on cells); experiment: affinity cross-linking of ^125I-OP1 to COS-1 cells transfected with ALK4 and daf-4 cDNA; immunoprecipitation with ALK antiserum, autoradiography
Description: as §1, §2, §3

binding result [1]: no binding | binding result [2]: no binding | binding result [3]: no binding | binding result [4]: no binding
B1: BMP-4 (ligand, UniProt P12644 293-408, looked up)
chain: SPKHHSQRARKKNKNCRRHSLYVDFSDVGWNDWIVAPPGYQAFYCHGDCPFPLADHLNSTNHAIVQTLVNSVNSSIPKACCVPTELSAISMLYLDEYDKVVLKNYQEMVVEGCGCR
modifications: ^125I label (radioiodinated, residue not stated)

binding result [5]: no binding | binding result [6]: no binding
B2: OP-1 (osteogenic protein-1) (ligand)
chain: STGSKQRSQNRSKTPKNQEALRMANVAENSSSDQRQACKKHELYVSFRDLGWQDWIIAPEGYAAYYCEGECAFPLNSYMNATNHAIVQTLVHFINPETVPKPCCAPTQLNAISVLYFDDSSNVILKKYRNMVVRACGCH
modifications: ^125I label (radioiodinated, residue not stated); unlabeled when used as competitor
